B1: IKZF1 (parent)
chain: HIKLHSGEKPFKCHLCNYACRRRD

Variants of: B1
Test: protein stability index of a GFP-peptide fusion (GPS, HEK-293T) (PSI 1-6); higher = more stable
Details: c terminus: a fixed tail appended
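Note: lentivirally expressed fusions sorted by FACS into six bins by GFP to DsRed ratio, PSI derived from sequencing read proportions per bin multiplied by bin number.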

**Q.** For HIKLHSGEKPFKCHLCNYACRRRM [D24M], which protein stability index is on record?
**A.** 1.97

**Q.** Which protein stability index does the source give for HIKLHSGEKPFKCHLCNYACRRRV [D24V] here?
**A.** 2.39

**Q.** Which protein stability index does the source give for HIKLHSGEKPFKCHLCNYACRRRT [D24T] here?
**A.** 2.31

**Q.** With HIKLHSGEKPFKCHLCNYACRRRG [D24G] as the variant, how does the protein stability index read?
**A.** 2.04

**Q.** With HIKLHSGEKPFKCHLCNYACRRRR [D24R] as the variant, how does the protein stability index read?
**A.** 2.22

**Q.** For HIKLHSGEKPFKCHLCNYACRRRA [D24A], which protein stability index is on record?
**A.** 2.29

**Q.** Which protein stability index does the source give for HIKLHSGEKPFKCHLCNYACRRRN [D24N] here?
**A.** 1.76

**Q.** For HIKLHSGEKPFKCHLCNYACRRRC [D24C], which protein stability index is on record?
**A.** 2.22

**Q.** Which protein stability index does the source give for HIKLHSGEKPFKCHLCNYACRRRP [D24P] here?
**A.** 2.09

**Q.** For HIKLHSGEKPFKCHLCNYACRRRE [D24E], which protein stability index is on record?
**A.** 1.99

**Q.** Which protein stability index does the source give for HIKLHSGEKPFKCHLCNYACRRRL [D24L] here?
**A.** 2.01

**Q.** With HIKLHSGEKPFKCHLCNYACRRRS [D24S] as the variant, how does the protein stability index read?
**A.** 1.43

**Q.** With HIKLHSGEKPFKCHLCNYACRRRH [D24H] as the variant, how does the protein stability index read?
**A.** 2.06

**Q.** With HIKLHSGEKPFKCHLCNYACRRRI [D24I] as the variant, how does the protein stability index read?
**A.** 2.89

**Q.** With HIKLHSGEKPFKCHLCNYACRRRK [D24K] as the variant, how does the protein stability index read?
**A.** 2.48

**Q.** Which protein stability index does the source give for HIKLHSGEKPFKCHLCNYACRRRQ [D24Q] here?
**A.** 1.73

**Q.** For HIKLHSGEKPFKCHLCNYACRRRF [D24F], which protein stability index is on record?
**A.** 2.54

**Q.** With HIKLHSGEKPFKCHLCNYACRRRY [D24Y] as the variant, how does the protein stability index read?
**A.** 1.9

**Q.** Which protein stability index does the source give for HIKLHSGEKPFKCHLCNYACHRRD [R21H] here?
**A.** 2.27

**Q.** Which protein stability index does the source give for HIKLHSGEKPFKCHLCNYACFRRD [R21F] here?
**A.** 2.22

**Q.** For HIKLHSGEKPFKCHLCNYACMRRD [R21M], which protein stability index is on record?
**A.** 1.79

**Q.** For HIKLHSGEKPFKCHLCNYACGRRD [R21G], which protein stability index is on record?
**A.** 2.41

**Q.** Which protein stability index does the source give for HIKLHSGEKPFKCHLCNYACPRRD [R21P] here?
**A.** 2.39

**Q.** Which protein stability index does the source give for HIKLHSGEKPFKCHLCNYACLRRD [R21L] here?
**A.** 1.59

**Q.** For HIKLHSGEKPFKCHLCNYACNRRD [R21N], which protein stability index is on record?
**A.** 1.65

**Q.** With HIKLHSGEKPFKCHLCNYACQRRD [R21Q] as the variant, how does the protein stability index read?
**A.** 1.15

**Q.** With HIKLHSGEKPFKCHLCNYACDRRD [R21D] as the variant, how does the protein stability index read?
**A.** 1.29

**Q.** For HIKLHSGEKPFKCHLCNYACARRD [R21A], which protein stability index is on record?
**A.** 3.46

**Q.** For HIKLHSGEKPFKCHLCNYACYRRD [R21Y], which protein stability index is on record?
**A.** 1.58

**Q.** With HIKLHSGEKPFKCHLCNYACERRD [R21E] as the variant, how does the protein stability index read?
**A.** 2.27

**Q.** Which protein stability index does the source give for HIKLHSGEKPFKCHLCNYACTRRD [R21T] here?
**A.** 2.38

**Q.** Which protein stability index does the source give for HIKLHSGEKPFKCHLCNYACCRRD [R21C] here?
**A.** 1.78

**Q.** Which protein stability index does the source give for HIKLHSGEKPFKCHLCNYACVRRD [R21V] here?
**A.** 1.3

**Q.** Which protein stability index does the source give for HIKLHSGEKPFKCHLCNYACSRRD [R21S] here?
**A.** 1.99

**Q.** With HIKLHSGEKPFKCHLCNYACWRRD [R21W] as the variant, how does the protein stability index read?
**A.** 1.49

**Q.** Which protein stability index does the source give for HIKLHSGEKPFKCHLCNYACKRRD [R21K] here?
**A.** 2.19

**Q.** With HIKLHSGEKPFKCHLCNYANRRRD [C20N] as the variant, how does the protein stability index read?
**A.** 2.35

**Q.** Which protein stability index does the source give for HIKLHSGEKPFKCHLCNYARRRRD [C20R] here?
**A.** 1.96

**Q.** Which protein stability index does the source give for HIKLHSGEKPFKCHLCNYAVRRRD [C20V] here?
**A.** 2.89

**Q.** For HIKLHSGEKPFKCHLCNYAGRRRD [C20G], which protein stability index is on record?
**A.** 1.96

**Q.** With HIKLHSGEKPFKCHLCNYAPRRRD [C20P] as the variant, how does the protein stability index read?
**A.** 3.08

**Q.** Which protein stability index does the source give for HIKLHSGEKPFKCHLCNYADRRRD [C20D] here?
**A.** 1.59

**Q.** For HIKLHSGEKPFKCHLCNYAKRRRD [C20K], which protein stability index is on record?
**A.** 1.64

**Q.** With HIKLHSGEKPFKCHLCNYASRRRD [C20S] as the variant, how does the protein stability index read?
**A.** 1.69

**Q.** Which protein stability index does the source give for HIKLHSGEKPFKCHLCNYAHRRRD [C20H] here?
**A.** 1.94

**Q.** Which protein stability index does the source give for HIKLHSGEKPFKCHLCNYAMRRRD [C20M] here?
**A.** 2.5

**Q.** With HIKLHSGEKPFKCHLCNYAQRRRD [C20Q] as the variant, how does the protein stability index read?
**A.** 2.39
